From article PMC13544220, “Glycemic and bodyweight effects of GIPR coding variation reflect differences in surface expression and intrinsic functional impairment” (Science Advances, 2026)

What was measured:
Type in all cases: cell-based, human
[1] = tested on: wild-type and variant SNAP-GIPR; assay: Surface SNAP-GIPR expression (SNAP-tag labelling) in INS-1 cells; conditions: Fig 4G; Mean
How it was run: (§1)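 Read-out: whole-cell fluorescence of surface-only SNAP label (Alexa Fluor 647, 500 nM, 10 min, RT), wide-field 20X, several FOVs per well. Flat-field corrected, phase-contrast masked, nontransfected-well signal subtracted; normalized to experiment mean or wild-type.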

[2] = tested on: wild-type and variant SNAP-GIPR; assay: Single-concentration GIP cAMP response by HTRF in INS-1 cells; conditions: Fig S3E, mean
Procedure: (§2) All variants were tested in parallel on each occasion to control for transfection efficiency differences between experiments.

[3] = tested on: wild-type and variant SNAP-GIPR; assay: cADDis cAMP imaging in AD293 cells, ensemble, expression-matched and per decile; conditions: Fig S3F, cADDis, mean;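 note: Ensemble cells as % of IBMX/FSK response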
How it was run: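 AD293 cells reverse-transfected with wild-type or variant SNAP-GIPR plus cADDis Green Up sensor, variants run in parallel. After 24 h, surface receptor labelled with SNAP-Surface Alexa Fluor 647 (500 nM); single-cell cADDis fluorescence imaged at 37 °C in KRBH, 6 mM glucose, 0.1% BSA. Responses given ensemble, expression-matched by wild-type deciles, or per own decile.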

[4] = tested on: wild-type and variant SNAP-GIPR; assay: Constitutive and agonist-mediated internalization, reversible SNAP-tag labelling, INS-1 cells; parameters: key to Internalisation, GIP-only / Internalisation, Vehicle / Internalisation, +GIP: % internalization: residual fluorescence after Mesna vs pre-Mesna; conditions: Mean; for +GIP internalisation (100 nM) / GIP-specific internalisation (100 nM) / Constitutive internalisation (100 nM): Fig 4G; for +GIP internalisation (100 nM) / GIP-specific internalisation (100 nM): GIP 100 nM; for Internalisation, +GIP / Internalisation, GIP-only / Internalisation, Vehicle: Fig S4C, INS-1
How it was run: (§3)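 Percentage internalization is read as the fraction of specific SNAP fluorescence that survives Mesna stripping, compared with the image taken before Mesna. Wells are imaged in TNE buffer at pH 8.6 and again after 10 min.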

[5] = tested on: wild-type and variant SNAP-GIPR; assay: Constitutive and agonist-mediated internalization, reversible SNAP-tag labelling, AD293 cells; parameters: key to Internalisation, Vehicle / Internalisation, +GIP / Internalisation, GIP-only: % internalization: residual fluorescence after Mesna vs pre-Mesna; Surface expression: unit not given here; conditions: Mean; for +GIP internalisation (100 nM) / GIP-specific internalisation (100 nM) / Constitutive internalisation (100 nM) / Surface expression: Fig 4E; for +GIP internalisation (100 nM) / GIP-specific internalisation (100 nM): GIP 100 nM; for Internalisation, +GIP / Internalisation, GIP-only / Internalisation, Vehicle: Fig S4C, AD293
How it was run: as §3

[6] = tested on: wild-type and variant SNAP-GIPR; assay: Surface SNAP-GIPR expression (SNAP-tag labelling) in AD293 cells; conditions: for AD293 Surface: Fig S3E, mean; for Surface SNAP-GIPR expression: sheet Fig 1C;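 for all read-outs here: scaled to the experimental average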
How it was run: as §1

[7] = tested on: wild-type and variant SNAP-GIPR; assay: Single-concentration GIP cAMP response by HTRF in AD293 cells; conditions: Fig S3F, HTRF, mean;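 note: ratio to experiment-wide average response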
Procedure: as §2

[8] = column repeated, paired with cAMP 100 nM

B1: R404H (protein, UniProt P48546 22-466, looked up, variant R404H)
Gastric inhibitory …: RAETGSKGQTAGELYQRWERYRRECQETLAAAEPPSGLACNGSFDMYVCWDYAAPNATARASCPWYLPWHHHVAAGFVLRQCGSDGQWGLWRDHTQCENPEKNEAFLDQRLILERLQVMYTVGYSLSLATLLLALLILSLFRRLHCTRNYIHINLFTSFMLRAAAILSRDRLLPRPGPYLGDQALALWNQALAACRTAQIVTQYCVGANYTWLLVEGVYLHSLLVLVGGSEEGHFRYYLLLGWGAPALFVIPWVIVRYLYENTQCWERNEVKAIWWIIRTPILMTILINFLIFIRILGILLSKLRTRQMRCRDYRLRLARSTLTLVPLLGVHEVVFAPVTEEQARGALRFAKLGFEIFLSSFQGFLVSVLYCFINKEVQSEIHRGWHHCRLRRSLGEEQRQLPERAFRALPSGSGPGEVPTSRGLSSGTLPGPGNEASRELESYC
Surface expression [1]: 0.8156
INS-1 cAMP (100 nM) [2]: 0.9867
AD293 100 pM cADDis [3]: 26.6869
AD293 100 nM cADDis [3]: 37.59
+GIP internalisation (100 nM) [4]: 0.3918
GIP-specific internalisation (100 nM) [4]: 0.07675
Constitutive internalisation (100 nM) [4]: 0.3151
Internalisation, +GIP [4]: 48.5
Internalisation, GIP-only [4]: 9.682
Internalisation, Vehicle [4]: 38.8183
+GIP internalisation (100 nM) [5]: 0.4112
GIP-specific internalisation (100 nM) [5]: 0.07509
Constitutive internalisation (100 nM) [5]: 0.3361
Surface expression [5]: 0.7754
Internalisation, +GIP [5]: 56.8624
Internalisation, GIP-only [5]: 10.8785
Internalisation, Vehicle [5]: 45.9839
AD293 Surface [6, 8]: 0.7424
AD293 Surface ([6]; paired with cAMP 100 pM): 0.7424
Surface SNAP-GIPR expression ([6]; replicate 1): 0.7731
Surface SNAP-GIPR expression ([6]; replicate 2): 0.8601
Surface SNAP-GIPR expression ([6]; replicate 3): 1.364
Surface SNAP-GIPR expression ([6]; replicate 4): 1.202
Surface SNAP-GIPR expression ([6]; replicate 5): 0.6596
Surface SNAP-GIPR expression ([6]; replicate 6): 0.8044
Surface SNAP-GIPR expression ([6]; replicate 7): 1.014
Surface SNAP-GIPR expression ([6]; replicate 8): 0.8566
Surface SNAP-GIPR expression ([6]; replicate 9): 0.836
Surface SNAP-GIPR expression ([6]; replicate 10): 0.8174
Surface SNAP-GIPR expression ([6]; replicate 11): 0.6917
Surface SNAP-GIPR expression ([6]; replicate 12): 0.5756
Surface SNAP-GIPR expression ([6]; replicate 13): 0.812
Surface SNAP-GIPR expression ([6]; replicate 14): 0.5735
Surface SNAP-GIPR expression ([6]; replicate 15): 0.518
Surface SNAP-GIPR expression ([6]; replicate 16): 0.5844
Surface SNAP-GIPR expression ([6]; replicate 17): 0.7582
Surface SNAP-GIPR expression ([6]; replicate 18): 0.6508
Surface SNAP-GIPR expression ([6]; replicate 19): 0.4867
Surface SNAP-GIPR expression ([6]; replicate 20): 0.616
Surface SNAP-GIPR expression ([6]; replicate 21): 0.5336
Surface SNAP-GIPR expression ([6]; replicate 22): 0.6715
Surface SNAP-GIPR expression ([6]; replicate 23): 0.7341
Surface SNAP-GIPR expression ([6]; replicate 24): 0.6837
Surface SNAP-GIPR expression ([6]; replicate 25): 0.9077
Surface SNAP-GIPR expression ([6]; replicate 26): 0.65
Surface SNAP-GIPR expression ([6]; replicate 27): 0.7009
Surface SNAP-GIPR expression ([6]; replicate 28): 0.5824
Surface SNAP-GIPR expression ([6]; replicate 29): 0.9349
Surface SNAP-GIPR expression ([6]; replicate 30): 0.779
Surface SNAP-GIPR expression ([6]; replicate 31): 0.9227
Surface SNAP-GIPR expression ([6]; replicate 32): 0.586
Surface SNAP-GIPR expression ([6]; replicate 33): 0.6419
Surface SNAP-GIPR expression ([6]; replicate 34): 0.7664
Surface SNAP-GIPR expression ([6]; replicate 35): 0.5787
Surface SNAP-GIPR expression ([6]; replicate 36): 0.8557
Surface SNAP-GIPR expression ([6]; replicate 37): 0.7468
Surface SNAP-GIPR expression ([6]; replicate 38): 0.7266
Surface SNAP-GIPR expression ([6]; replicate 39): 0.577
Surface SNAP-GIPR expression ([6]; replicate 40): 0.6491
Surface SNAP-GIPR expression ([6]; replicate 41): 0.7544
AD293 100 pM HTRF [7]: 0.3628
AD293 100 nM HTRF [7]: 1.255

B2: G438S (protein, UniProt P48546 22-466, looked up, variant G438S)
Gastric inhibitory …: RAETGSKGQTAGELYQRWERYRRECQETLAAAEPPSGLACNGSFDMYVCWDYAAPNATARASCPWYLPWHHHVAAGFVLRQCGSDGQWGLWRDHTQCENPEKNEAFLDQRLILERLQVMYTVGYSLSLATLLLALLILSLFRRLHCTRNYIHINLFTSFMLRAAAILSRDRLLPRPGPYLGDQALALWNQALAACRTAQIVTQYCVGANYTWLLVEGVYLHSLLVLVGGSEEGHFRYYLLLGWGAPALFVIPWVIVRYLYENTQCWERNEVKAIWWIIRTPILMTILINFLIFIRILGILLSKLRTRQMRCRDYRLRLARSTLTLVPLLGVHEVVFAPVTEEQARGALRFAKLGFEIFLSSFQGFLVSVLYCFINKEVQSEIRRGWHHCRLRRSLGEEQRQLPERAFRALPSGSGPSEVPTSRGLSSGTLPGPGNEASRELESYC
Surface expression [1]: 1.361
INS-1 cAMP (100 nM) [2]: 1.306
AD293 100 pM cADDis [3]: 35.9341
AD293 100 nM cADDis [3]: 39.48
+GIP internalisation (100 nM) [4]: 0.7615
GIP-specific internalisation (100 nM) [4]: 0.2318
Constitutive internalisation (100 nM) [4]: 0.5297
Internalisation, +GIP [4]: 53.475
Internalisation, GIP-only [4]: 16.2333
Internalisation, Vehicle [4]: 37.2417
+GIP internalisation (100 nM) [5]: 0.9894
GIP-specific internalisation (100 nM) [5]: 0.334
Constitutive internalisation (100 nM) [5]: 0.6554
Surface expression [5]: 1.622
Internalisation, +GIP [5]: 61.1161
Internalisation, GIP-only [5]: 20.3657
Internalisation, Vehicle [5]: 40.7504
AD293 Surface [6, 8]: 1.603
AD293 Surface ([6]; paired with cAMP 100 pM): 1.603
Surface SNAP-GIPR expression ([6]; replicate 1): 1.682
Surface SNAP-GIPR expression ([6]; replicate 2): 1.688
Surface SNAP-GIPR expression ([6]; replicate 3): 1.832
Surface SNAP-GIPR expression ([6]; replicate 4): 2.161
Surface SNAP-GIPR expression ([6]; replicate 5): 1.111
Surface SNAP-GIPR expression ([6]; replicate 6): 1.49
Surface SNAP-GIPR expression ([6]; replicate 7): 1.615
Surface SNAP-GIPR expression ([6]; replicate 8): 1.417
Surface SNAP-GIPR expression ([6]; replicate 9): 1.842
Surface SNAP-GIPR expression ([6]; replicate 10): 1.526
Surface SNAP-GIPR expression ([6]; replicate 11): 1.806
Surface SNAP-GIPR expression ([6]; replicate 12): 1.746
Surface SNAP-GIPR expression ([6]; replicate 13): 1.595
Surface SNAP-GIPR expression ([6]; replicate 14): 2.152
Surface SNAP-GIPR expression ([6]; replicate 15): 1.581
Surface SNAP-GIPR expression ([6]; replicate 16): 1.661
Surface SNAP-GIPR expression ([6]; replicate 17): 1.607
Surface SNAP-GIPR expression ([6]; replicate 18): 1.471
Surface SNAP-GIPR expression ([6]; replicate 19): 1.527
Surface SNAP-GIPR expression ([6]; replicate 20): 1.649
Surface SNAP-GIPR expression ([6]; replicate 21): 1.401
Surface SNAP-GIPR expression ([6]; replicate 22): 1.64
Surface SNAP-GIPR expression ([6]; replicate 23): 1.516
Surface SNAP-GIPR expression ([6]; replicate 24): 1.737
Surface SNAP-GIPR expression ([6]; replicate 25): 1.567
Surface SNAP-GIPR expression ([6]; replicate 26): 1.448
Surface SNAP-GIPR expression ([6]; replicate 27): 1.549
Surface SNAP-GIPR expression ([6]; replicate 28): 1.925
Surface SNAP-GIPR expression ([6]; replicate 29): 1.515
Surface SNAP-GIPR expression ([6]; replicate 30): 1.373
Surface SNAP-GIPR expression ([6]; replicate 31): 1.117
Surface SNAP-GIPR expression ([6]; replicate 32): 1.576
Surface SNAP-GIPR expression ([6]; replicate 33): 1.347
Surface SNAP-GIPR expression ([6]; replicate 34): 1.595
Surface SNAP-GIPR expression ([6]; replicate 35): 1.243
Surface SNAP-GIPR expression ([6]; replicate 36): 1.381
Surface SNAP-GIPR expression ([6]; replicate 37): 1.612
Surface SNAP-GIPR expression ([6]; replicate 38): 1.594
Surface SNAP-GIPR expression ([6]; replicate 39): 1.863
Surface SNAP-GIPR expression ([6]; replicate 40): 1.797
Surface SNAP-GIPR expression ([6]; replicate 41): 1.787
AD293 100 pM HTRF [7]: 1.746
AD293 100 nM HTRF [7]: 1.655
